Reference: publication PMC2963697

B1: AfDmpI (Archaeoglobus fulgidus DSM 4304) (protein)
chain: PVLIVYGPKLDVGKKREFVERLTSVAAEIYGMDRSAITILIHEPPAENVGVGGKLIADRERE
B2: HpDmpI (Helicobacter pylori 26695) (protein)
chain: PFINIKLVPENGGPTNEQKQQLIEGVSDLMVKVLNKNKASIVVIIDEVDSNNYGLGGESVHHLRQKN

Columns and labels:
[1] = substrate: C=CC=C(O)C(=O)O; experiment: UV spectrophotometric tautomerase assay, steady state; type: biochemical, Archaeoglobus fulgidus; details: reaction 3 -> 6, 20 mM sodium phosphate, pH 7.3, 23 °C
[2] = substrate: C=CC=C(O)C(=O)O; experiment: as above; type: biochemical, Helicobacter pylori; details: reaction 3 -> 6, 20 mM sodium phosphate, pH 7.3, 23 °C

Row | Protein | Km [1] | kcat [1] | kcat/Km [1] | Km [2] | kcat [2] | kcat/Km [2]
1 | B1 | 90 ± 30 µM | 0.1 ± 0.02 s⁻¹ | 1100 M⁻¹ s⁻¹ | – | – | –
2 | B2 | – | – | – | 190 ± 40 µM | 2.5 ± 0.3 s⁻¹ | 13000 M⁻¹ s⁻¹
